{"source": "paper PMC10362797", "about": "“Phosphorylation of USP20 on Ser334 by IRAK1 promotes IL-1β-evoked signaling in vascular smooth muscle cells and vascular inflammation” (The Journal of Biological Chemistry, 2023)", "binders": {"B1": {"name": "HA-tagged USP20-S334A (mouse) (enzyme, UniProt Q8C6M1 1-916, looked up)", "chain": "MGDARDLCPHLDCIGEVTKEDLLLKSKGTCQSCGVAGPNLWACLQVTCPYVGCGESFADHSSIHAQVKKHNLTVNLTTFRVWCYACEREVFLEQRLAVHLASSSARLSEQDSPPPSHPLKAVPIAVADEGESESEDDDLKPRGLTGMKNLGNSCYMNAALQALSNCPPLTQFFLECGGLVRTDKKPALCKSYQKLISEVWHKKRPSYVVPTSLSHGIKLVNPMFRGYAQQDTQEFLRCLMDQLHEELKEPMVAAVAALTDARDSDSSDTDERRDGDRSPSEDEFLSCDSSSDRGEGDGQGRGGGSSKAEMELLISDEAGRAISEKERMKDRKFAWGQQRTNSEQVDEDADVDTAMASLDEQSREAQPPSPRSTSPCQTPEPDNEAHIRSSSRPCSPVHHHHEGHSKLSSSPPRASPVRMGPSYVLKKAQVPSTGGRRRKEQSYRSVISDVFNGSVLSLVQCLTCDRVSTTVETFQDLSLPIPGKEDLAKLHSAIYQNVPAKPGACGDSYSSQGWLAFIVEYIRRFVVSCTPSWFWGPVVTLEDCLAAFFAADELKGDNMYSCERCKKLRNGVKYCKVLCLPEILCVHLKRFRHEVMYSFKVSSHVSFPLEGLDLRPFLAKECTSQVTTYDLLSVICHHGTAGSGHYIAYCQNVINGQWYEFDDQYVTEVHETVVQNVEAYVLFYRKSSEEAMRERQQVVSLAAMREPSLLRFYVSREWLNKFNTFAEPGPITNHTFLCSHGGIPPNKYHYIDDLVVILPQSVWEHLYSRFGGGPAVNHLYVCSICQVEIEALAKRRRVEIDTFIKLNKAFQAEESPAVIYCISMHWFREWEAFVKGKDSEPPGPIDNSRIAQVKGSGHIQLKQGADCGQISEETWTYLSSLYGGGPEIAIRQSVAQLPDPESLHGEQKIEAETRAL", "notes": "Mimics unphosphorylated USP20; source: mouse SMCs, transduced with recombinant adenovirus, in protein extract/lysate; not shown: HA, N-terminal, kept"}}, "target": "T1, TRAF6 (TNFR-associated factor 6), endogenous (mouse (endogenous in mouse SMCs), UniProt P70196 1-530)", "T1 construct": "TRAF6, E3 ubiquitin ligase, endogenously expressed in mouse aortic smooth muscle cells; source: endogenous, mouse SMC lysate", "T1 sequence (looked up)": "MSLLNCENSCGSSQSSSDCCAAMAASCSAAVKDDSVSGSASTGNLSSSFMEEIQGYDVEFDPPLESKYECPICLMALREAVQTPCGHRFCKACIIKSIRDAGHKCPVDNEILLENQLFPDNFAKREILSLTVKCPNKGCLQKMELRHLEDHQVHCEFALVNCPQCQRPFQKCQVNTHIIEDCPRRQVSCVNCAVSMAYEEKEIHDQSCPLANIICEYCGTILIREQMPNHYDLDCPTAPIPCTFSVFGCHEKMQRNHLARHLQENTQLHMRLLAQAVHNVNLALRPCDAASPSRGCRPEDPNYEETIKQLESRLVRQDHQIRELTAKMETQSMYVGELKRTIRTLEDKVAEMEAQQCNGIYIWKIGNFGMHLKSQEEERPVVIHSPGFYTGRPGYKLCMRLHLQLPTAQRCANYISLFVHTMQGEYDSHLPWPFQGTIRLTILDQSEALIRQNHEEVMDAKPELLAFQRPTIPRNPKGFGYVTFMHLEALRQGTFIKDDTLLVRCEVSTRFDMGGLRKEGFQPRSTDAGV", "test": "co-IP; endogenous TRAF6 immunoprecipitated with anti-TRAF6(D-10) agarose overnight at 4 °C from lysates of mouse SMCs transduced with HA-USP20, serum starved 1 h and stimulated with IL-1β (1 ng/ml, 20 min); lysis buffer 50 mM Hepes pH 7.5, 2 mM EDTA, 250 mM NaCl, 10% glycerol, 0.5% Nonidet P-40; immunoblot for HA", "conditions": "partners not purified"}
{"binder": "B1", "values": [{"measurement": "fold of USP20-WT in TRAF6 immunoprecipitates", "value": "~2.2", "unit": "fold"}]}
